From article PMC8425125, “Regulation of wound ethylene biosynthesis by NAC transcription factors in kiwifruit”

Experiments:
Test in all cases: EMSA; ~2.5 ug protein, 0.9 pmol probe in 20 uL; 5 mM HEPES-KOH pH 7.6, 30 mM NaCl, 0.2 mM DTT, 0.02 mM EDTA, 0.8 ug salmon sperm DNA, 0.2 ug poly(dI-dC); room temperature 15 min; 4% native PAGE, 0.5x TBE (printed 0.5% w/v), 5% glycerol, pH 8.3, 4 C
Settings in all cases: protein: recombinant; tags: N-terminal MBP (pMAL-c2x); chain copies: 2; label: 3'-biotin; blunt
[1] = molecular target: AcNAC4 DNA-binding domain (Actinidia chinensis, UniProt A0A075ECR2 1-182)
[2] = molecular target: AcNAC2 DNA-binding domain (Actinidia chinensis, UniProt A0A075EAR8 1-182)
[3] = molecular target: AcNAC1 DNA-binding domain (Actinidia chinensis, UniProt A0A075EB52 1-182)
[4] = molecular target: AcNAC3 DNA-binding domain (Actinidia chinensis, UniProt A0A075EC91 1-182)
AcNAC3 DNA-binding domain, sequence (A0A075EC91 entry or part of it): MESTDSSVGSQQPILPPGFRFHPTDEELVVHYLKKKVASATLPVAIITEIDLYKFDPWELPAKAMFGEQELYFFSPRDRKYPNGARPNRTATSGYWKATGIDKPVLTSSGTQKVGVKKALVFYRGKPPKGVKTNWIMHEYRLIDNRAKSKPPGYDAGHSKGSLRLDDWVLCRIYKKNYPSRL

AcNAC2 DNA-binding domain, sequence (A0A075EAR8 entry or part of it): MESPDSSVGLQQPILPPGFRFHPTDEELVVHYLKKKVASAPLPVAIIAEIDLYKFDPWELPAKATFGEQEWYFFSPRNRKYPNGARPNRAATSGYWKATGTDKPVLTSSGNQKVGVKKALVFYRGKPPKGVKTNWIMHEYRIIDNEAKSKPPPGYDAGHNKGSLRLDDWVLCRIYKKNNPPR
AcNAC4 DNA-binding domain, sequence (A0A075ECR2 entry or part of it): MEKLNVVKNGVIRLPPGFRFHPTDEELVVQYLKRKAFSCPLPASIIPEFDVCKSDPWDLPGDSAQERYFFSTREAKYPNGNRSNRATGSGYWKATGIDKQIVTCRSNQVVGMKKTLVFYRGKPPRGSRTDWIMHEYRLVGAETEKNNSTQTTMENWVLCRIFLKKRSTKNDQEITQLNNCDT
AcNAC1 DNA-binding domain, sequence (A0A075EB52 entry or part of it): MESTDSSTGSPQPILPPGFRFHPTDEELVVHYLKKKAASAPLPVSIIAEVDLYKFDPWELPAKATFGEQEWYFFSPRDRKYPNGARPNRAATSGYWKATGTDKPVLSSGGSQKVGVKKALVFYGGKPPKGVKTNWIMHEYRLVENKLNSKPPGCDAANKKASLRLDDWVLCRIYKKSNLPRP

B1: AcACS1 probe N1 (Wt) (dsDNA)
DNA 1: CATTATACGTATAGTCAACCACATAAC
DNA 2: GTTATGTGGTTGACTATACGTATAATG
binding result [1]: binds | binding result [2]: binds | binding result [3]: binds | binding result [4]: binds

B2: AcACS1 probe N1MUT (Mut) (dsDNA)
DNA 1: CATCGATCCATCTGTCAACCACATAAC
DNA 2: GTTATGTGGTTGACAGATGGATCGATG
binding result [1]: no binding | binding result [2]: no binding | binding result [3]: no binding | binding result [4]: no binding
